Reference: US7211395 (dated 2007)
Bridges are numbered along the chain shown (N, C = ends).

Columns and labels:
chicken ovalbumin [1] = molecular target: T1, chicken ovalbumin (chicken, UniProt P01012); assay: FP, PBS pH 7.4
T1 chain: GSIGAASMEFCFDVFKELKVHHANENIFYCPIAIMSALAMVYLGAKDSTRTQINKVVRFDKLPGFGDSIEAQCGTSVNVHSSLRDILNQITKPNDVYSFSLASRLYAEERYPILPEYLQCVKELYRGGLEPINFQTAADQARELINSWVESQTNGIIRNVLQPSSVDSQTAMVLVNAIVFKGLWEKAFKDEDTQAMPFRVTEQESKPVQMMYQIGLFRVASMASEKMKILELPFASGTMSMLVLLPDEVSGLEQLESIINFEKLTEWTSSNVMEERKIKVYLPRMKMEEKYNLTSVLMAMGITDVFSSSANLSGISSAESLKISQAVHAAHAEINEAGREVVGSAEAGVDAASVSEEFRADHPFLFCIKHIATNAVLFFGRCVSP

rabbit serum albumin = molecular target: T2, rabbit serum albumin (rabbit, UniProt P49065); assay: FP, pH 6.2, no NaCl
T2 chain: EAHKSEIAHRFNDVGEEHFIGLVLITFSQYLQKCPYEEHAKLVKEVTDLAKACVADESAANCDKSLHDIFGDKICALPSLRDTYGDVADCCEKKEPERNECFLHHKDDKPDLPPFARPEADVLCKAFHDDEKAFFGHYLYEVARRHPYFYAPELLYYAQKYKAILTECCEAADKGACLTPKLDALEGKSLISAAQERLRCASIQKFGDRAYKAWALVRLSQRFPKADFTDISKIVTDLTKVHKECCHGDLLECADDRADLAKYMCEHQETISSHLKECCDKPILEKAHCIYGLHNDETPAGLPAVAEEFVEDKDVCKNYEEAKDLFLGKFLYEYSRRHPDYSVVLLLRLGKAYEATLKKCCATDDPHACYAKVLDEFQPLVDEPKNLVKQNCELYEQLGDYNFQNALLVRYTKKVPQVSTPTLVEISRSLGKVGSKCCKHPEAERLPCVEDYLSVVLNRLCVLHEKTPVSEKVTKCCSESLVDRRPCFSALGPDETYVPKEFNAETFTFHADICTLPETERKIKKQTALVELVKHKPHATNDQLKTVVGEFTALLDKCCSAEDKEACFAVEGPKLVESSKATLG

pig serum albumin = molecular target: T3, pig serum albumin (pig, UniProt P08835); assay: FP, pH 6.2, no NaCl
T3 chain: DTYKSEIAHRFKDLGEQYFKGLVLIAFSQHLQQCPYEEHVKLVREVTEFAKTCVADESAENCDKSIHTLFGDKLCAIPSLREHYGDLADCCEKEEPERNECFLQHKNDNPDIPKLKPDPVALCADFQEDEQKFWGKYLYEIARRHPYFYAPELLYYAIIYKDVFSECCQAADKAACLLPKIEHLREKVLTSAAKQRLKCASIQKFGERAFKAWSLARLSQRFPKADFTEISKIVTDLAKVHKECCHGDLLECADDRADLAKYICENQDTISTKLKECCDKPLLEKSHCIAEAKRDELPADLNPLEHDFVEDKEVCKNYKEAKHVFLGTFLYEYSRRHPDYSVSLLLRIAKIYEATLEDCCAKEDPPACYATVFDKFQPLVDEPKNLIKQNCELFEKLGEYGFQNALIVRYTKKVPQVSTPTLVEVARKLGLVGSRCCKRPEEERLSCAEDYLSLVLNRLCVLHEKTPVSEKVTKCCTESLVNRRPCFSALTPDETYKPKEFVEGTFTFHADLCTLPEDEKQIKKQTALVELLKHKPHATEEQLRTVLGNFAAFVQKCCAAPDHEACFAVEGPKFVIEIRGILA

chicken ovalbumin [2] = molecular target: T1, chicken ovalbumin; assay: FP, pH 6.2, no NaCl

Question: Ac-AEGTGDFWFCDRIAWYPQHLCEFLDPEGGGK(fluorescein)-NH2 (disulfide 10-21 (inferred)) [DX-236] was tested. Which Kd (chicken ovalbumin [1]) did it give?
Answer: > 200000 nM

Question: And the Kd (rabbit serum albumin)?
Answer: 500 nM

Question: What about the Kd (pig serum albumin) of the same binder?
Answer: 500 nM

Question: And the Kd (chicken ovalbumin [2])?
Answer: > 200000 nM
